Experimental data published in the supplement of paper PMC7125110.
± gives the standard error. Variants at the floor of the assay were thinned out.

B1: glmS ribozyme (parent)
chain: AUAAAAGCGCCAGAACUACAGAAAUGUAGUUGACGAGGAGGAGGUUUAUCGAAUUUUCGGCGGAUGCCUCCAAA

Experiments:
Settings in all cases: with glucosamine-6-phosphate
glucosamine-6-phosphate [1] = variants of: B1; test: self-cleavage kobs at 160 uM GlcN6P; higher = faster cleavage; RNA array
Method in brief: (§1)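 On sequenced MiSeq chips, barcoded ribozyme variants were made in situ by E. coli RNA polymerase and followed at 37 °C through a hybridised Cy3 probe. Glucosamine-6-phosphate was flowed in at 40 μM to 10 mM in HEPES/KCl/Mg(OAc)2 buffer. Exponential fits to normalised per-tile medians gave kobs, and weighted Michaelis–Menten fits gave kcat and KM.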

glucosamine-6-phosphate [2] = variants of: B1; test: self-cleavage kobs at 640 uM GlcN6P; higher = faster cleavage; RNA array
Method in brief: as §1

glucosamine-6-phosphate [3] = variants of: B1; test: self-cleavage kobs at 10000 uM GlcN6P; higher = faster cleavage; RNA array
Method in brief: as §1

glucosamine-6-phosphate [4] = variants of: B1; test: self-cleavage kobs at 40 uM GlcN6P; higher = faster cleavage; RNA array
Method in brief: as §1

glucosamine-6-phosphate [5] = variants of: B1; test: self-cleavage kobs at 2500 uM GlcN6P; higher = faster cleavage; RNA array
Method in brief: as §1

Variant	self-cleavage kobs at 160 uM GlcN6P (glucosamine-6-phosphate [1]) [s⁻¹]	self-cleavage kobs at 640 uM GlcN6P (glucosamine-6-phosphate [2]) [s⁻¹]	self-cleavage kobs at 10000 uM GlcN6P (glucosamine-6-phosphate [3]) [s⁻¹]	self-cleavage kobs at 40 uM GlcN6P (glucosamine-6-phosphate [4]) [s⁻¹]	self-cleavage kobs at 2500 uM GlcN6P (glucosamine-6-phosphate [5]) [s⁻¹]
G7U C50A	< 1e-05	< 1e-05	< 1e-05	–	–
A64C C68G C70G	–	< 1e-05	–	< 1e-05	< 1e-05
A6U C8U C70U	< 1e-05	–	< 1e-05	–	< 1e-05
A6U A12G A48U G59U G62A	< 1e-05	–	–	–	–
U69C C71G	0.000225 ± 0.00011	6.76e-05 ± 1.6e-05	6.79e-05 ± 9e-06	3.93e-05 ± 1.3e-05	7.01e-05 ± 1.5e-05
G7C G13U A36C C68A	< 1e-05	–	–	–	< 1e-05
C8G G40U C61A C71U	< 1e-05	–	–	–	–
A6C A15U C71G	< 1e-05	–	–	–	–
G7U G41U G59U A64G	< 1e-05	–	< 1e-05	–	< 1e-05
C8G A52G	< 1e-05	< 1e-05	< 1e-05	–	< 1e-05
C61G A64G	–	< 1e-05	< 1e-05	< 1e-05	< 1e-05
G7A C11A A52U C70A	< 1e-05	< 1e-05	–	–	< 1e-05
A6G A15U A52U	< 1e-05	< 1e-05	–	–	< 1e-05
A6G U69C	< 1e-05	–	2.56e-05 ± 1e-05	–	–
G7C G32U A36U G40U A42U A52G	< 1e-05	< 1e-05	–	–	< 1e-05
A6G A12U A36C G43C	< 1e-05	< 1e-05	–	–	< 1e-05
C8G G51U A64U	< 1e-05	< 1e-05	–	–	–
C8A C16A G40C U65G	< 1e-05	–	–	–	< 1e-05
G9A U49A	< 1e-05	< 1e-05	–	–	< 1e-05
A6U G32C G62U	< 1e-05	–	–	–	–
C8G U57C G62U	< 1e-05	< 1e-05	< 1e-05	–	< 1e-05
G7U G62A C67A	< 1e-05	< 1e-05	–	–	< 1e-05
A64G C68G C71A	< 1e-05	< 1e-05	< 1e-05	< 1e-05	–
C8G C10U G51U A53U	< 1e-05	< 1e-05	–	–	–
C8G U30A G40U	< 1e-05	–	–	–	< 1e-05

Variant	self-cleavage kobs at 160 uM GlcN6P (glucosamine-6-phosphate [1]) [s⁻¹]	self-cleavage kobs at 640 uM GlcN6P (glucosamine-6-phosphate [2]) [s⁻¹]	self-cleavage kobs at 10000 uM GlcN6P (glucosamine-6-phosphate [3]) [s⁻¹]	self-cleavage kobs at 40 uM GlcN6P (glucosamine-6-phosphate [4]) [s⁻¹]	self-cleavage kobs at 2500 uM GlcN6P (glucosamine-6-phosphate [5]) [s⁻¹]
A6C G7C A33C C50G A52C U65C	< 1e-05	–	–	–	–
C61G G63A	< 1e-05	–	< 1e-05	< 1e-05	–
G7C U45G G59A	< 1e-05	< 1e-05	< 1e-05	–	< 1e-05
A64G U65G C71A	–	–	0.00131 ± 0.00024	5.45e-05 ± 2.2e-05	–
A6U U47A A53U	< 1e-05	–	–	–	–
C8A C10U	< 1e-05	< 1e-05	–	–	–
C8A G13U G35U C68G	0.000168 ± 3.8e-05	–	–	–	–
U65A C70U	0.00024 ± 4.6e-05	0.000871 ± 0.00012	0.00403 ± 0.0008	0.000142 ± 1.8e-05	0.00273 ± 0.0009
A6G A33U U57C C58A	< 1e-05	< 1e-05	–	–	–
G7U C34A U65G	< 1e-05	< 1e-05	–	–	–
G7U A12U C67U	< 1e-05	< 1e-05	–	–	–
A6G G7U A14G A33C	< 1e-05	–	–	–	–
A6C A12U G41A	< 1e-05	< 1e-05	–	–	< 1e-05
G7U G60C G66U	< 1e-05	–	–	–	–
G63C A64U	–	< 1e-05	< 1e-05	< 1e-05	< 1e-05
C8U G40U G43U	< 1e-05	< 1e-05	–	–	< 1e-05
G7U C71U	< 1e-05	–	< 1e-05	–	–
C8A A15C C34A G38A C68G	0.000422 ± 0.00011	0.000341 ± 8.5e-05	–	–	0.00055 ± 0.00013
G9A A14U A36C U46G	< 1e-05	–	–	–	< 1e-05
C8U A39U U46C U56C G59U	< 1e-05	< 1e-05	–	–	< 1e-05
C8G U47G U54A G63U	< 1e-05	< 1e-05	–	–	< 1e-05
G7C U55A A64U	< 1e-05	< 1e-05	–	–	< 1e-05
A6G U47C U55C C71U	< 1e-05	< 1e-05	–	–	< 1e-05
G7C C8U A15G G35A	< 1e-05	–	–	–	< 1e-05
